Laboratory results taken from PMC9951844.

Target: SARS-CoV-2 wildtype spike antigen of the SPR column (construct not stated) (SARS-CoV-2)
Test: SPR

B1: YB9-258 (antibody, V domains shown)
VH: EVQLVESGGGLIQPGGSLRLSCAASGLTVSSNYMHWVRQAPGKGLEWVSVLYAGGSAFYADSVKGRFTISRNNSKNTLYLQMNSLRAEDTAIYYCARGLGDYLDSWGQGTLVTVSS
VL: DIQMTQSPSSVSASVGDRVTITCRASQGIGSWLAWYQQKPGKAPQLLIYAASTLQSGVPPRFSGSGSGTDFTLTITSLQPEDFASYYCQQANSVLALTFGGGTKVEIK
B1 was tested. Which Kd did it give?
Its Kd is 0.18 nM.
